One may read the EC50 as the midpoint of the concentration-response curve. Read a high EC50 as a need for much substance. One may read the IC50 as the midpoint of a concentration-inhibition curve. High values mean weaker potency, low ones greater potency.

The values below come from patent US20070049521A1 (ENOBIA PHARMA, published 2007).

No end group written: not given here.

The target of assay [1] is T1, human NPR-C (natriuretic peptide receptor C, clearance receptor), overexpressed on HEK293 cells (human, UniProt P17342 27-541).
T1 construct: whole, on cells; also called natriuretic clearance receptor
T1 sequence (looked up): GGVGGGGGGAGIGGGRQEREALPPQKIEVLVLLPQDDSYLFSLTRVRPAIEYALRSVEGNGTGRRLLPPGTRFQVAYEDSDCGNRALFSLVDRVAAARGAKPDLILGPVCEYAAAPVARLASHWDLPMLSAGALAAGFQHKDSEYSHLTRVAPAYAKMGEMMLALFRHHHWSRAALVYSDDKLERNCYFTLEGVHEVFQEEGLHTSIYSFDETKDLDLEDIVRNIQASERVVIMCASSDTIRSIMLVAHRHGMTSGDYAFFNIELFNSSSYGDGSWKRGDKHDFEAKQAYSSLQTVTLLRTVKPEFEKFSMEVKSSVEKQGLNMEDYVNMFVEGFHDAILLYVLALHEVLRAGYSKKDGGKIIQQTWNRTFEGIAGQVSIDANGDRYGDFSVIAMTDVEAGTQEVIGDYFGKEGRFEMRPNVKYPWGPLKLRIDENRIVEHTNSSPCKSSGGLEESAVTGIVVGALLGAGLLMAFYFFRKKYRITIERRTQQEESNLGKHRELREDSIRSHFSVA
Put plainly: PLAP activity bound to NPR-C-transfected HEK293 cells, saturation binding. The source says: (§1) To analyze the potential binding of Ostn to natriuretic receptors, a fusion protein (PLAP-Ostn) (FIG. 6) was generated as described above. This fusion protein comprised an N-terminal secreted placental alkaline phosphatase (PLAP) moiety linked to mature mouse Ostn (residues 29-130) (SEQ ID NO: 62). Conditioned media containing PLAP-mOstn was used to assess Ostn binding on transiently transfected cells.

Assay [2] deals with T2, rat GC-A, overexpressed on HEK293 cells (rat, UniProt P18910 29-1057).
T2 construct: whole, on cells
T2 sequence (looked up): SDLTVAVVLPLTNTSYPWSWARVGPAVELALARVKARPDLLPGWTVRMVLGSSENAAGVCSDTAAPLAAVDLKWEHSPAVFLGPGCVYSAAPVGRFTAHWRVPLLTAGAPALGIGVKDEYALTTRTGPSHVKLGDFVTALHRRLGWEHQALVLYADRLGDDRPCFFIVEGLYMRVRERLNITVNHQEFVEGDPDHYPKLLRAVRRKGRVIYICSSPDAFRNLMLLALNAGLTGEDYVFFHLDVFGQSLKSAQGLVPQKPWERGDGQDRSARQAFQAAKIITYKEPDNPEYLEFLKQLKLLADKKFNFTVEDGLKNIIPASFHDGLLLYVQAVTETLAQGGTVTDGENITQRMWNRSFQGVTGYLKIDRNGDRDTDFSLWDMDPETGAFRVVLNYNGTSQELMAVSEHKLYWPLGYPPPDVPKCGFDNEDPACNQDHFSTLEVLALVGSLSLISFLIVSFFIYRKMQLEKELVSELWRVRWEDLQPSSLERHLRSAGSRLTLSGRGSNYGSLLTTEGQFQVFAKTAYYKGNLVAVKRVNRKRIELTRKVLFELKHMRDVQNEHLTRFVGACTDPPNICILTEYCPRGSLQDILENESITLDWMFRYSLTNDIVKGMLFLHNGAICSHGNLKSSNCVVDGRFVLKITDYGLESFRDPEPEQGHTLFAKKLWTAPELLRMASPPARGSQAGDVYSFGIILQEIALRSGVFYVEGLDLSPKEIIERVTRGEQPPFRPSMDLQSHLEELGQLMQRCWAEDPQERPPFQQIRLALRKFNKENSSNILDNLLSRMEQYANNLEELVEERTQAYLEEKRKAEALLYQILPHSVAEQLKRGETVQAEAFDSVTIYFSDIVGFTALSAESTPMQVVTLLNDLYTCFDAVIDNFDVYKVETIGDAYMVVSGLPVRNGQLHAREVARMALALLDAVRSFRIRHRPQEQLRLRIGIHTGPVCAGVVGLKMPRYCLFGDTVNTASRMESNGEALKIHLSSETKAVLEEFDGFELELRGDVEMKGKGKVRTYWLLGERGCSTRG
Description: PLAP activity bound to transiently transfected HEK293 cells.
Excerpt: as §1

The target of assay [3] is T3, human GC-B, overexpressed on HEK293 cells (human, UniProt P20594 23-1047).
T3 construct: whole, on cells
T3 sequence (looked up): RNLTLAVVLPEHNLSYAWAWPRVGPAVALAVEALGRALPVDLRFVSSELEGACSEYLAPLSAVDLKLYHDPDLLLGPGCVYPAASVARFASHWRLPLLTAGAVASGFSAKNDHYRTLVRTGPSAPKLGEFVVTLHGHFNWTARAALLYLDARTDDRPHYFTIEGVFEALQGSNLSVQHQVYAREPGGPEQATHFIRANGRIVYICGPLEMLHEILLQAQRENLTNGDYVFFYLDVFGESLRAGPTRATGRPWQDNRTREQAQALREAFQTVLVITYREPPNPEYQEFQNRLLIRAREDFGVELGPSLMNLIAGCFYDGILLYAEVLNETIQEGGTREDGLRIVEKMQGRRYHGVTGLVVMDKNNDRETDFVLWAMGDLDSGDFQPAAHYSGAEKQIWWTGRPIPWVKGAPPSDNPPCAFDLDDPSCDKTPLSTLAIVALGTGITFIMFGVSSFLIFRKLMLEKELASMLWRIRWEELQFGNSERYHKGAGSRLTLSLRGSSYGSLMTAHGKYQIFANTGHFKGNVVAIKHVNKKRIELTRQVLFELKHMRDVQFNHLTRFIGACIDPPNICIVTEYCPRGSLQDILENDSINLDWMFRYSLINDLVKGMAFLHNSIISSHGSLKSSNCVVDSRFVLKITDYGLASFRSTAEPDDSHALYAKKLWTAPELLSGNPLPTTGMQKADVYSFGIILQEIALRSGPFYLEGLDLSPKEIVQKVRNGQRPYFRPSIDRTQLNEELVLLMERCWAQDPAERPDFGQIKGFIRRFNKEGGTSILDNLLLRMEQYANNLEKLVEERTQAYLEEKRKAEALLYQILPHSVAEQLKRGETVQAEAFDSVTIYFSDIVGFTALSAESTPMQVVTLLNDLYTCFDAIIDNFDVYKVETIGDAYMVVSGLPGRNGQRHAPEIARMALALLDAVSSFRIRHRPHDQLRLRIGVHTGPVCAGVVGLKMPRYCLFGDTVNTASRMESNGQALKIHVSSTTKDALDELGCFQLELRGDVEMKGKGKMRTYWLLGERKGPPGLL
The description is as above.
Excerpt: as §1

The target in assay [4] is T4, endogenous GC-A of HEK293 cells (human, UniProt P16066 33-1061).
T4 sequence (looked up): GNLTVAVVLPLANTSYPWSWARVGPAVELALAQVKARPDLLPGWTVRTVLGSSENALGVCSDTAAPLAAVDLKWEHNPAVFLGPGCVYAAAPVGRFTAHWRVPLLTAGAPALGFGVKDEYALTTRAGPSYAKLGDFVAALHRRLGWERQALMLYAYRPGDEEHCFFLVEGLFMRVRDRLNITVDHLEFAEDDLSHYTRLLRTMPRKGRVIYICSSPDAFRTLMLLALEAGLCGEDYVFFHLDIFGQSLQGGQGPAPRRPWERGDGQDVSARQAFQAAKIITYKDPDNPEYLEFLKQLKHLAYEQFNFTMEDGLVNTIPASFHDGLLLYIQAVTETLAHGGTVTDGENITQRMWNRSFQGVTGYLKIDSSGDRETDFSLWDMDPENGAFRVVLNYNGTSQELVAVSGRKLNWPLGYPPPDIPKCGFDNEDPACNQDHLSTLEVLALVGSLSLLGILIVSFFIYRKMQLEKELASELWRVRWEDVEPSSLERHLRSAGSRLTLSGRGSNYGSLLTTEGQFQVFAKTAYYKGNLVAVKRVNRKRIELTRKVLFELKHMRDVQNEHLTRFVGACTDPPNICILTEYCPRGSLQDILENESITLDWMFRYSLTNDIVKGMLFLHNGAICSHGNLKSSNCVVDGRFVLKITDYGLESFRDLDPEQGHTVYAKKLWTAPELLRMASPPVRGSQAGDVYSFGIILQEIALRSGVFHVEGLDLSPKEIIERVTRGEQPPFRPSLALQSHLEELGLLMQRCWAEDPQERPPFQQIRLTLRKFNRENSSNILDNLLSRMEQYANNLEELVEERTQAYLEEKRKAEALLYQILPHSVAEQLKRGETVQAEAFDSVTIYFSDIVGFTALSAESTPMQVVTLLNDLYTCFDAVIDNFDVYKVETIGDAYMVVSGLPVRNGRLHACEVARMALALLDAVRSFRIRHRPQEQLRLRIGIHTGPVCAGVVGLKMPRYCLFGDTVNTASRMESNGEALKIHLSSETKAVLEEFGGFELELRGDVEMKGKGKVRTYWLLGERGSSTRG
Description: cell-based or functional assay.

Assay [5] deals with T1, human NPR-C (natriuretic peptide …). Description: cell-based or functional assay.
Assay [6] has the same target. Put plainly: competition of ~30 nM PLAP-Ostn binding on NPR-C-transfected HEK293 cells. Here is the method: To further validate the specificity and affinity of Ostn-NPR-C binding, competition experiments were conducted in NPR-C over-expressing cells. […] (SEQ ID NO: 71) lacking a part of NM2. […] (SEQ ID NO: 66) or Ostn[117-130] (SEQ ID NO: 71). […] (SEQ ID NO: 66) was able to compete off 50% of the binding of PLAP-mOstn in the ˜1-10 nM range, in contrast to Ostn[117-130] (SEQ ID NO: 71) that was unable to efficiently compete up to 100 nM (FIG. 7B).

In assay [7] the target is T5, NPR-C on ATDC5 cells (mouse chondrogenic cell line) (mouse, UniProt P70180 41-536).
T5 construct: whole, on cells; also called ATDC5 cells surface
T5 sequence (looked up): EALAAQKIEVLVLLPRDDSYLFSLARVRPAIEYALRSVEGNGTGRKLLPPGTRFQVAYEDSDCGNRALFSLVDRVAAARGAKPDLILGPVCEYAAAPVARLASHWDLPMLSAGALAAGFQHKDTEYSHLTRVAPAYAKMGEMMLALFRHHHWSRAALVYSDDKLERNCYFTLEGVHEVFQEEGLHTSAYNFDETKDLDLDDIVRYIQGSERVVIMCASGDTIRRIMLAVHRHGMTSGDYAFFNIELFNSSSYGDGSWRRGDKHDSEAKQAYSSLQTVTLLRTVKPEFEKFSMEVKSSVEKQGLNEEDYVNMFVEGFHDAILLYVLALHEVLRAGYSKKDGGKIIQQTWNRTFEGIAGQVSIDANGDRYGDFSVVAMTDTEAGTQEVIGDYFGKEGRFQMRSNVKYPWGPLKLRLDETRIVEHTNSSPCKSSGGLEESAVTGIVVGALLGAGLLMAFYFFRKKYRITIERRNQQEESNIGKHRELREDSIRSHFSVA
Put plainly: displacement of 125I-Ostn[83-133] from ATDC5 cells. Here is the method:
(SEQ ID NO: 41) for 90 min at 4° C. After incubation, cells were washed twice with ice-cold PBS and solubilized with 0.5-ml of 0.5 M NaOH.
The radioactivity was measured with gamma-counter (Wallac). […] (SEQ ID NO: 41) and the IC₅₀ calculated was 4.7 nM. […] (SEQ ID NO: 41) (FIG. 12b).
On the technique in general: Displacement assays read how much labelled ligand stays bound in the presence of the test substance.

B1: PLAP-Ostn fusion protein (N-terminal secreted placental alkaline phosphatase moiety linked to mouse Ostn[29-130]) (other)
chain: DAAQPARRARRTYEAYVRSSGIIPVEEENPDFWNREAAEALGAAKKLQPAQTAAKNLIIFLGDGMGVSTVTAARILKGQKKDKLGPEIPLAMDRFPYVALSKTYNVDKHVPDSGATATAYLCGVKGNFQTIGLSAAARFNQCNTTRGNEVISVMNRAKKAGKSVGVVTTTRVQHASPAGTYAHTVNRNWYSDADVPASARQEGCQDIATQLISNMDIDVILGGGRKYMFPMGTPDPEYPDDYSQGGTRLDGKNLVQEWLAKRQGARYVWNRTELMQASLDPSVTHLMGLFEPGDMKYEIHRDSTLDPSLMEMTEAALRLLSRNPRGFFLFVEGGRIDHGHHESRAYRALTETIMFDDAIERAGQLTSEEDTLSLVTADHSHVFSFGGYPLRGSSIFGLAPGKARDRKAYTVLLYGNGPGYVLKDGARPDVTESESGSPEYRQQSAVPLDEETHAGEDVAVFARGPQAHLVHGVQEQTFIAHVMAFAACLEPYTACDLAPPAGTTDAAHPGYLDLASQEFGTASLQSPPTAREEKSATELSAKLLRLDDLVSLENDVFETKKKRSFSGFGSPLDRLSAGSVEHRGKQRKAVDHSKKRFGIPMDRIGRNRLSSSRG
notes: Used as conditioned medium of transfected HEK293 cells; also called PLAP-mOstn
In the case of B1, the EC50 in assay [1] is ~30 nM. Besides, the binding result in assay [2] and in assay [3] was “no binding” each time.

On to SLRRSSCFGGRIDRIGAQSGLGCNSFRY (ligand, ends and bridges not checked; cysteine pairing not given here) [Rat ANP (1-28)], for which, in assay [4], the “increase in cGMP levels upon ANP stimulation of GFP-transfected HEK293 cells” value is 9 fold. In addition, in assay [5], the “increase in cGMP levels upon stimulation of NPR-C-overexpressing HEK293 cells with 0.1 nM ANP[1-28]” value was 1.5 fold.

With YDHSKKRFGIPMDRIGRNRLSNSR-NH2 [mouse amidated Ostn[107-129] synthetic C-terminal peptide], the IC50 in assay [6] fell in the range of 1 to 10 nM. Moreover, the “cGMP levels of NPR-C-expressing HEK293 cells with 0.1 nM ANP and 10 nM Ostn[107-129]” value in assay [5] was determined as 4 fold.

B2: human Ostn[83-133] (cold) (peptide)
peptide: SFSGFGSPLDRLSAGSVDHKGKQRKVVDHPKRRFGIPMDRIGRNRLSNSRG
notes: Bought from Phoenix Pharmaceutical co
For the molecule B2, the IC50 in assay [7] turned out to be 4.7 nM.
